Test results reported in article PMC4223295, “Crystal Structure of the Bacillus subtilis Phosphodiesterase PhoD Reveals an Iron and Calcium-containing Active Site” (The Journal of Biological Chemistry, 2014).

T1: PhoD (mPhoD) (Bacillus subtilis, UniProt P42251)
T1 sequence (P42251 57-583): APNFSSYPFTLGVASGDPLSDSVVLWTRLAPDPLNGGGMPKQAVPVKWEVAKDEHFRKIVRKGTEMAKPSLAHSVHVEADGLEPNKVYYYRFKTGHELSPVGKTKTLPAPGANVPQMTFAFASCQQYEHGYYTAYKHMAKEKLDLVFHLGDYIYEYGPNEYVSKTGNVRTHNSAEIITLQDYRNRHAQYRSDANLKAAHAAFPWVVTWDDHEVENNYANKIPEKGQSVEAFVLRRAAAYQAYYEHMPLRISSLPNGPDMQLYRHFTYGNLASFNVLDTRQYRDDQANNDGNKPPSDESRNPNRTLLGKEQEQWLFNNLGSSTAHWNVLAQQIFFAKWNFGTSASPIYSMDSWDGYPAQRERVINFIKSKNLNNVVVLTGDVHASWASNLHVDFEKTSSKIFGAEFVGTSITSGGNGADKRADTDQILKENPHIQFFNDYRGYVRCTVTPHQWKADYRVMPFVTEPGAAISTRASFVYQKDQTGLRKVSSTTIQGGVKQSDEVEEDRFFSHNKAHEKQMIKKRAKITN

B1: PhoD (mPhoD) (Bacillus subtilis subsp. subtilis str. 168) (protein)
chain: T1 sequence (P42251 57-583)
notes: mature domain, signal peptide removed; N-terminal Strep-SUMO tag cleaved by Ulp1; E. coli BL21(DE3) cytoplasm

Assays:
[1] = target: T1, PhoD (mPhoD); conditions: crystallised at pH 5.6 with phosphate; active site, coordinates Fe3+ and two Ca2+ ions; proposed product complex
[2] = substrate: O=[N+]([O-])c1ccc(OP(=O)(O)O)cc1; test: purified protein; type: biochemical, Bacillus subtilis; conditions: pH 8.0, 25 °C, 100 mM Tris-HCl, 2 mM CaCl2, Ca2+-supplemented enzyme

Row | Molecule | X-ray crystal structure, 2 Å [1] | Km [2] | kcat [2]
1 | O=P(O)(O)O [phosphate] | the structure contains a phosphate molecule bound at the active site |  | 
2 | B1 |  | 50 µM | 1.2 s⁻¹
